Tests used:
[1] = biological target: Hcp from Acinetobacter baumannii AB0057, tag-free (Acinetobacter baumannii strain AB0057); test: AUC; sedimentation equilibrium, 20°C, Hcp at 1.0 and 2.5 mg/ml, 20 mM Tris-HCl pH 7.5, 200 mM NaCl, 0.2 mM DTT, 2% glycerol
[2] = biological target: Hcp from Acinetobacter baumannii AB0057, tag-free (Acinetobacter baumannii strain AB0057); test: negative-staining electron microscopy; Hcp at 0.02 mg/ml in 20 mM Tris-HCl pH 7.5, 200 mM NaCl, 2 mM DTT, stained with 1% uranyl formate; reference-free 2D classification
[3] = biological target: Hcp from Acinetobacter baumannii AB0057, C-terminal His-tagged (Acinetobacter baumannii strain AB0057); test: crystal structure; X-ray, 1.55 Å, space group P6; crystals from 2.0 M ammonium sulfate, 0.1 M Hepes pH 7.5, 4°C; hexamer made by the 6-fold crystallographic symmetry; interfaces analysed with PISA

Substance	stoichiometry N [1]	stoichiometry N [2]	stoichiometry N [3]
Hcp from Acinetobacter baumannii AB0057, tag-free (natural protein)	6	6	–
Hcp from Acinetobacter baumannii AB0057, C-terminal His-tagged (natural protein)	–	–	6
